Data set [1] concerns the molecule itself. Put plainly: fluorescence correlation spectroscopy.
The target of data set [2] is T1, Mss116 core (Ser73-Tyr597) (Saccharomyces cerevisiae, UniProt P15424 73-597).
T1 sequence: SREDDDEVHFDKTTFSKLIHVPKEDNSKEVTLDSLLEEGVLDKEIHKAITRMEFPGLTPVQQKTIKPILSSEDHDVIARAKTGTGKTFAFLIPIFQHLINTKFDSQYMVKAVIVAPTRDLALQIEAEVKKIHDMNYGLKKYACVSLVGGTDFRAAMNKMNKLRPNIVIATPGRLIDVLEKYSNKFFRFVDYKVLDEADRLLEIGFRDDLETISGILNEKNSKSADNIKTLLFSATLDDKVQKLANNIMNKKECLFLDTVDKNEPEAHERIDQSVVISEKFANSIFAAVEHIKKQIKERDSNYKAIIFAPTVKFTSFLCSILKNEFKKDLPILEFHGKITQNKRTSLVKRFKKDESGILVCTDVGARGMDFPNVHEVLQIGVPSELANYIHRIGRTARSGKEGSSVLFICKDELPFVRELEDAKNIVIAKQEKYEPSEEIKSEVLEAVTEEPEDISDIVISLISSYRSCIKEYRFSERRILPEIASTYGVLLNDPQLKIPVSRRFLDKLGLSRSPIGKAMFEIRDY
Put plainly: FCS.

In data set [3] the target is T1, Mss116 core (Ser73-Tyr597). Put plainly: FCS. This is another data set of the same source.

Read-outs that look alike come from different tables or passages of the source.

B1: Mss116 (truncated construct, Ser73 - Tyr597) (domain or fragment, Saccharomyces cerevisiae, UniProt P15424 73-597, looked up)
chain: T1 sequence
Turning to B1, in data set [1], the binding result is recorded as “binds”.

B2: 28-mer hairpin RNA (structured_RNA)
RNA: GCCUCGCUGCCCUUCGGGGCAGCGAGGC
On to B2, for which the values for the Kd in data set [2] and in data set [3] were 0.122 ± 0.022 µM and 0.117 ± 0.021 µM, respectively.

As usually defined, the Kd is the free concentration of one partner at which half of the binding sites on the other are occupied at equilibrium, for simple one-to-one binding. A lower Kd goes with higher affinity.

These data come from paper PMC3125984 (Journal of molecular biology, 2011).
